# Assay results as given in patent US20160160263.
# T1: TIAH/LH, MMP2 selective substrate
# T1 chain: TIAHLH
# T2: YGRAAA (SEQ ID NO: 17), uPA selective substrate
# T2 chain: YGRAAA
# What was measured:
# [1] = target: T1, TIAH/LH, MMP2 selective substrate
# [2] = target: T2, YGRAAA (SEQ ID NO: 17), uPA selective …
Protein,cleavage of ACPP substrate by protease [1],cleavage of ACPP substrate by protease [2]
MMP-2 (protein) YNFFPRKPKWDKNQITYRIIGYTPDLDPETVDDAFARAFQVWSDVTPLRFSRIHDGEADIMINFGRWEHGDGYPFDGKDGLLAHAFAPGTGVGGDSHFDDDELWTLGEGQVVRVKYGNADGEYCKFPFLFNGKEYNSCTDTGRSDGFLWCSTTYNFEKDGKYGFCPHEALFTMGGNAEGQPCKFPFRFQGTSYDSCTTEGRTDGYRWCGTTEDYDRDKKYGFCPETAMSTVGGNSEGAPCVFPFTFLGNKYESCTSAGRSDGKMWCATTANYDDDRKWGFCPDQGYSLFLVAAHEFGHAMGLEHSQDPGALMAPIYTYTKNFRLSQDDIKGIQELYGASPDIDLGTGPTPTLGPVTPEICKQDIVFDGIAQIRGEIFFFKDRFIWRTVTPRDKPMGPLLVATFWPELPEKIDAVYEAPQEEKAVFFAGNEYWIYSASTLERGYPKPLTSLGLPPDVQRVDAAFNWSKNKKTYIFAGDKFWRYNEVKKKMDPGFPKLIADAWNAIPDNLDAVVDLQGGGHSYFFKGAYYLKLENQSLKSVKFGSIKSDWLGC,selectively cleaved by MMP-2 versus 9 and 14,–
tissue plasminogen activator (tPA) (protein) SYQVICRDEKTQMIYQQHQSWLRPVLRSNRVEYCWCNSGRAQCHSVPVKSCSEPRCFNGGTCQQALYFSDFVCQCPEGFAGKCCEIDTRATCYEDQGISYRGTWSTAESGAECTNWNSSALAQKPYSGRRPDAIRLGLGNHNYCRNPDRDSKPWCYVFKAGKYSSEFCSTPACSEGNSDCYFGNGSAYRGTHSLTESGASCLPWNSMILIGKVYTAQNPSAQALGLGKHNYCRNPDGDAKPWCHVLKNRRLTWEYCDVPSCSTCGLRQYSQPQFRIKGGLFADIASHPWQAAIFAKHRRSPGERFLCGGILISSCWILSAAHCFQERFPPHHLTVILGRTYRVVPGEEEQKFEVEKYIVHKEFDDDTYDNDIALLQLKSDSSRCAQESSVVRTVCLPPADLQLPDWTECELSGYGKHEALSPFYSERLKEAHVRLYPSSRCTSQHLLNRTVTDNMLCAGDTRSGGPQANLHDACQGDSGGPLVCLNDGRMTLVGIISWGLGCGQKDVPGVYTKVTNYLDWIRDNMRP,–,to a lesser extent by tPA
